This assay concerns the target T1, human ADAMTS13 (human, UniProt Q76LX8 75-1427).
T1 construct: ELISA: full-length recombinant ADAMTS13 coated on plates (Technoclone); Activity assays: endogenous ADAMTS13 of normal human plasma; also called full-length human recombinant ADAMTS13; VWF-cleaving protease
T1 sequence (looked up): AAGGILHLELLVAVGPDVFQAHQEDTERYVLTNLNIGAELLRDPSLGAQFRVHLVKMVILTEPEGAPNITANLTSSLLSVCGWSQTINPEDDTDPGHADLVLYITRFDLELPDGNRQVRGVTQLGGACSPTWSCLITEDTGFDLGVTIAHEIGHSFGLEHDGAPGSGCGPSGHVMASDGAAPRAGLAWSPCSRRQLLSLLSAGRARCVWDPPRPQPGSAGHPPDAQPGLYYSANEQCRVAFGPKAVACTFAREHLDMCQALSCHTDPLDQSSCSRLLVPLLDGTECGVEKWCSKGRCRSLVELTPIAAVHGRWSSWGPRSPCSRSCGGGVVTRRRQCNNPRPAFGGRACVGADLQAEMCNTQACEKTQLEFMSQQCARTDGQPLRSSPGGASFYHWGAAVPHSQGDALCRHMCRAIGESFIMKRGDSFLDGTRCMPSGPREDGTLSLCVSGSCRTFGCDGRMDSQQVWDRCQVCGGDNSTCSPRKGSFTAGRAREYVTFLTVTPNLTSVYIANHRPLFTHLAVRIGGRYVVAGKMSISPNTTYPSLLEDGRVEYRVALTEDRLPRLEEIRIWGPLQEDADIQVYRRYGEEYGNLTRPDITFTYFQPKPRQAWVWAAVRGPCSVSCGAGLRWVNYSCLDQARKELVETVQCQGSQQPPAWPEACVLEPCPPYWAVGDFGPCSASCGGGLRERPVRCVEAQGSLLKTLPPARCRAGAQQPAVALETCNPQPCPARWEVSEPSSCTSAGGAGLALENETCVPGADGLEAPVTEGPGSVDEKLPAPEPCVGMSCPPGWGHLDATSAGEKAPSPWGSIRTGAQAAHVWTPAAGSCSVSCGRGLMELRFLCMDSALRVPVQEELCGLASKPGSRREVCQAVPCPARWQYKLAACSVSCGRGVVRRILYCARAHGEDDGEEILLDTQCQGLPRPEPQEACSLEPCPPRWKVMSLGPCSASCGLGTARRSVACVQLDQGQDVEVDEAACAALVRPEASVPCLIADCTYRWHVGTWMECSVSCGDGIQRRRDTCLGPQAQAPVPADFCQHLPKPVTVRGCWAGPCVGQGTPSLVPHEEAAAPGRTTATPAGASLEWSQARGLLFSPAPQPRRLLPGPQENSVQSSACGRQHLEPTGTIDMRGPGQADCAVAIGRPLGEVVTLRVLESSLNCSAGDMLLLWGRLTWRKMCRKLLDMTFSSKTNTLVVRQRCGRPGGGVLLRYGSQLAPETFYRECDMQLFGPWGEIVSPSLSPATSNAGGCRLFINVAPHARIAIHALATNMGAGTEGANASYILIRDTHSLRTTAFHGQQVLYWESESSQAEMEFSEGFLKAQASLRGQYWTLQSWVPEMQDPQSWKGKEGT
As to the kind of experiment: phage ELISA on ADAMTS13-coated plates (positive: >10-fold absorbance above background). A general note: An ELISA detects its analyte on a solid surface through an enzyme-linked reagent.

Substitutions are numbered along the chain they refer to.

B1: scFv 1-451 (scFv, V domains shown)
VH: QVQLVQSGGGLVQPGRSLRLSCAASGFIFDDYAMHWVRQAPGKGLEWVSGISWNSGSIGYADSVKGRFTISRDNAKNSLYLQMNSLRAEDTALYYCAKDPNSLYRSGSFDYWGQGTLVTVSS
VL: not shown
B1: the binding result was “binds”.

B2: scFv z1-201 (scFv, V domains shown)
VH: B1 VH with S7F
VL: not shown
As for B2, the binding result is recorded as “binds”.

B3: scFv 1-440 (scFv, V domains shown)
VH: B1 VH with Q1E, V5L, Q6E
VL: ELQMTQSPSSLSASVGDRVTITCRASQSISSYLNWYQQKPGKAPKLLIYAASSLESGVPSRFSGSGSGTDFTLTISSLQPEDFASYYCQQSYSTPFTFGPGTKVDIK
In the case of B3, the binding result is listed as “binds”.

B4: scFv 1-432 (scFv, V domains shown)
VH: QVQLVQSGAEVKKPLSSVKVSCKASGGTFNMYDINWVRQAPGQGLEWMGGIVPILGVTNYAQNFQGRLTITADKSTSTAYMELSSLRSEDTAVYYCARGVAAGWNAFDVWGQGTMVTVSA
VL: ELVLTQPPSMSVVPGQTARITCGGDNIGSKSVHWYQQKPGQAPVLVVNDDTERPSGIPDRFSGSNSGNTATLVISRVGAGDEADYFCQVWDSRSDHQVFGGGTKLTVL
In the case of B4, the binding result is on record as “binds”.

B5: scFv 1-415 (scFv, V domains shown)
VH: QVQLQESGGGVVQPGRSLRLSCAASGFTFRNYAMHWVRQAPGKGLEWVAVISYDGGKEYYADSVKGRFTISRDNSKNTLYLQMNSLRAEDTAVYYCARDTFSYYDFWRAFDYWGQGTLVTVSS
VL: ELELTQPPSVSGSPGQSITISCTGTSSDVGGYNYVSWYQQHPGKAPKLMIYEVSNRPSGVSNRFSGSKSGNTASLTISGLQAEDEADYYCSSYTSSSTVVFGGGTKLTVL
Take B5: the binding result is “binds”.

B6: scFv 1-437 (scFv, V domains shown)
VH: QVQLVQSGGGLVKPGGSLRLSCAASGFIFSNYIMNWVRQAPGKGLEWVSSISSSGSYIYYADSVKGRFTISRDNAKNSMYLQMNSLRGEDTAVYYCAAAYDFWSGYYFWGQGTTVTVSS
VL: B5 VL with E3A, S97T, T98P, V99Y, G103T, L107V
Consider B6, for which the binding result is “binds”.

B7: scFv 1-410 (scFv, V domains shown)
VH: QVQLQESGGGVVQPGGSLRLSCAASGFTFDDYTMHWVRQAPGKGLEWVSLISWDGGSTYYADSVKGRFTISRDNSKNSLYLQMNSLRTEDTALYYCAKDNGYDILTDYLDSWGQGTLVTVSS
VL: ELQMTQSPSSLSASVGDRVTITCQASQDISNYLNWYQQKPGKAPKLLIYDASNLETGVPSRFSGSGSGTDFTFTISSLQPEDIATYYCQQYDNLPLTFGQGTRLEIK
On to B7, for which the binding result is “binds”.

B8: scFv 1-423 (scFv, V domains shown)
VH: QVQLVQSGAEVKRPGSSVKVSCKASGGTFSSYTISWVRQAPGQGLEWMGSIIPVLDVTSYAQQFQGRVTITADKSTKTAYMDLSSLTFEDTALYFCSIGRYTYGHFDTWGQGTQVTVSS
VL: ELVLTQPPSVSVAPGKTARVTCGGGNIGDKAVHWYQQRPGQAPVLVVFGDSARPSGIPERFSGSNSGNTATLTISRVEVGDEADYYCQVWDSNSDHQVFGGGTKLTVL
On to B8, for which the binding result was “binds”.

B9: scFv 2-206 (scFv, V domains shown)
VH: QVQLVQSGADVKKPGSSVKVSCKASGGTFSSYTINWVRQAPGQGLEWMGRIVPILDIANYAQKFQGRVTITADKSTSTAYMELSSLTSEDTAVYYCARDRGYDNKYGAYWGQGTLVTVSS
VL: ELVLTQPPSVSVAPGQTARITCGGNNIGSKNVHWYQQKPGQAPVLVVYDDSDRPSGIPERFSGSNSGNTATLTISRVEAGDEADYYCQVWDSSSDHWVFGGGTKVTVL
B9: the binding result is listed as “binds”.

B10: scFv 2-304 (scFv, V domains shown)
VH: QVHLVQSGAEVKKPGSSVKVSCKASGGTFSSYAISWVRQAPGQGLEWMGGITPILGVTNYSQKFQGRVTVTADISTTTAYMELSSLTSEDTAVYYCARDQGYANDYGAYWGQGTLVTVSS
VL: B9 VL with G28E, D52G, V105L
On to B10, for which the binding result is “binds”.

B11: scFv 2-301 (scFv, V domains shown)
VH: B10 VH with H3Q
VL: B9 VL with T21I, N31T, T71A, D91H
B11: the binding result is recorded as “binds”.

B12: scFv 2-207 (scFv, V domains shown)
VH: B10 VH with H3Q
VL: B9 VL with N31S, Y48H, S75G, E78G, K104Q, V105L
As for B12, the binding result is reported as “binds”.

B13: scFv 1-441 (scFv, V domains shown)
VH: QVQLQESGGGVVQPGRSLRLSCTDSGFTFSRYAMHWVRQAPGKGLEWVAGISYDGSYEYYADSVKGRFTISRDNSKNTLYVQMNSLRGEDTAVYYCARDLRGGEDYWGQGTLVTVSS
VL: ELVVTQPPSVSAAPGQKVTISCSGSTSNIGNNYVSWYQQFPGTAPKLLIYDNNKRPSGIPDRFSGSKSGTSATLGITGLQTGDEADYYCGTWDSSLSAVVFGGGTKVTVL
Consider B13, for which the binding result is reported as “binds”.

B14: scFv 1-417 (scFv, V domains shown)
VH: QVQLVQSGTEVKKFGSSVKVSCKASGGSFSSYTISWVRQAPGQGLEWMGSFIPILERANYAQKFQGRVTFTADKTTSTAYMELGGLRSQDTAVYYCARDLGDFGDSWGQGTLVTVSS
VL: ELVLTQPPSVSVAPGKTARITCGGNNIGSKTVHWYQQKPGQAPVVVVSDDSERPSGIPERFSGSNSGNTATLTISRVEGGDEADYYCQVWDSSNDQVVFGGGTELTVL
On to B14, for which the binding result was “binds”.

B15: scFv 1-413 (scFv, V domains shown)
VH: QVQLVQSGSEVKKPGSSVKVSCKASGGTFSSHTLSWVRQAPGQGLEWMGEIIPILDRVKYSQNFQGRVTITADKSTNTTYMELSSVRSEDTAVYYCVSNGWSNFDFWGQGTLVTVSP
VL: ELELTQPPSVSVSPGQTARITCSGGALPKHYVYWYQQKPGQAPAVVIYKDTERPSGIPERFSGSTSGATVTLTISGVQADDDAVYFCQSVDSNDTSWIFGGGTKLTVL
With B15, the binding result was “binds”.

B16: scFv 1-418 (scFv, V domains shown)
VH: B15 VH with L34V, K59N, S61A, Q62E, E82D, V86L, V97T, P117S
VL: B15 VL with E3V, V32A, A68T
For the molecule B16, the binding result is on record as “binds”.

B17: scFv 1-450 (scFv, V domains shown)
VH: QVQLVQSGAEVKKPGSSMNVSCKASGGTFSRHTINWVRQAPGQGLEWMGSIIPILGITNYAQNFQGRLTFSADKSTNTAYVELSGLRSEDTAVYYCASGDYYYDMAVWGQGTTVAVTS
VL: ELVLTQPPSVSVSPGQTARITCSGDALPKQYAYWYQQKPGQAPVLVIYKDSERPSGIPERFSGSSSGTTATLTISGVQAEDEADYYCQSAYSSGTVVFGGGTELTVL
Consider B17, for which the binding result was “binds”.

B18: scFv 1-401 (scFv, V domains shown)
VH: QVQLVQSGAELKKPGSSVKVSCKASGGAFTMYTINWVRQAPGRGLEWMGRIIPILGITDYAQKFQGRGTITADKSTSTAYLELSGLTSEDTAVYYCAREFSGGNYFDFWGQGTLVTVSS
VL: ELVLTQPPSVSVAPGKTARMTCGGNNIGGYSVHWYQQKPGQAPVLVVYHDSDRPSGIPERFTGSNSGNMATLTISRVEAGDEADYYCQVWDSSNDHSVFGGGTELTVL
For B18, the binding result is reported as “binds”.

B19: scFv 1-458 (scFv, V domains shown)
VH: B18 VH
VL: ELVLTQPPSVSVAPGKTARIPCGGNNIGGKSVHWYQQRPGQAPVLVVYSDSVRPSGIPERFSGSNSGNTATLTISRVEAGDEADYYCQVWDRSSDHVVFGGGTQLTVL
In the case of B19, the binding result was “binds”.

B20: scFv 2-108 (scFv, V domains shown)
VH: EVQLVQSGGGLVQPGGSLRLSCAASGFTFSSYWMSWVRQAPGKGLEWVANIKQDGSEKHYVDSMKGRFTISRDNGKNSLYLQMNSLRAEDTAVYYCARSPGYYFDYWGQGTLVTVSS
VL: ELVVTQPPSASGTPGQRVTISCSGSSSNIGSNYVYWYEQLPGTAPKLLIYRNNQRPSGVPDRFSGSKSGTSASLAISGLRSEDEADYYCAAWDDSLRVYVFGTGTKLTVL
As to B20, the binding result was “binds”.
